Results as given in paper PMC5640804.

Assays:
[1] = molecular target: yeast Golgi t-SNARE complex Sed5/Sec22/Bos1 with G176W Bos1, preassembled and reconstituted into acceptor liposomes (S. cerevisiae) (UniProt Q01590)
[2] = molecular target: yeast Golgi t-SNARE complex Sed5/Sec22/Bos1 with D196del Bos1, preassembled and reconstituted into acceptor liposomes (S. cerevisiae) (UniProt Q01590)

liposome fusion assay (NBD fluorescence), reduction in fusion against WT Bos1; still above the control without Bet1 (% reduction in fusion) [1]: 30 | liposome fusion assay (NBD fluorescence), reduction in fusion against WT Bos1; still above the control without Bet1 (% reduction in fusion) [2]: 60
B1: yeast Golgi v-SNARE Bet1, reconstituted into fluorescent donor liposomes (natural protein)
chain: MSSRFAGGNAYQRDTGRTQLFGPADGSNSLDDNVSSALGSTDKLDYSQSTLASLESQSEEQMGAMGQRIKALKSLSLKMGDEIRGSNQTIDQLGDTFHNTSVKLKRTFGNMMEMARRSGISIKTWLIIFFMVGVLFFWVWIT
